Assays:
[1] = molecular target: T1, human TG2 (Homo sapiens, UniProt P21980); test: 3H-putrescine incorporation TG activity assay with recombinant human TG2; assay type: biochemical
T1 sequence (P21980 1-687): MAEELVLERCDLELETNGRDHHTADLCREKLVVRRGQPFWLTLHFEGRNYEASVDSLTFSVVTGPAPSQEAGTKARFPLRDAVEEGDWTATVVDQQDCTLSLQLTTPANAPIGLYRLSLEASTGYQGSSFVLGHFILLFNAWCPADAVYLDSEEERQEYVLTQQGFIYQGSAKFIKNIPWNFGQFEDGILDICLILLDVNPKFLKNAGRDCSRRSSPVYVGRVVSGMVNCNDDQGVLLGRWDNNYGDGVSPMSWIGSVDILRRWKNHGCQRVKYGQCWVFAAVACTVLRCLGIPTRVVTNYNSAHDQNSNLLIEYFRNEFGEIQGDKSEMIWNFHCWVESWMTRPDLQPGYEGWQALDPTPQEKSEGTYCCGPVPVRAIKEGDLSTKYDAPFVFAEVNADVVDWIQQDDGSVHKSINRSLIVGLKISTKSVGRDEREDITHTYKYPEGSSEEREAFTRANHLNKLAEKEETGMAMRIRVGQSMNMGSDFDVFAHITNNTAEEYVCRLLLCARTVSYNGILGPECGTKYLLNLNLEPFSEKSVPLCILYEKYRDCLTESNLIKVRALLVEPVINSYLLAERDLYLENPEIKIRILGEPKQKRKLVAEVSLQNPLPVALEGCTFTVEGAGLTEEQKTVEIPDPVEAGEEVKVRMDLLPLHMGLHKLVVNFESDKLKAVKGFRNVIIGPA
Experimental: To determine an IC50 value for each antibody against human, rat and mouse the ^3H Putrescine assay was used. 100 ng of human TG2 or 25 ng of mouse and rat TG2 was used to generate a reaction where approximately 3000 cpm of Putrescine were incorporated per hour in 10 ul of the reaction mixture. Serial dilutions of each antibody were then applied starting from adding 500 ng (5 ug/ml final concentration) to the reaction mixture and incubated with the TG2 for 20 minutes prior to activating the reaction. IC50 values were calculated by determining the concentration at which the enzymatic rate of reaction was reduced by 50% using an appropriate curve fit in graphpad prism. Values are expressed as the amount of IgG in […] in the reaction that would inhibit 1 ng of TG2.
TG activity is measured by the Ca^2+ dependent incorporation of ^3H-putrescine into N′,N′-dimethylcasein. Recombinant human TG2 (100 ng) was pre-incubated for twenty minutes at room temperature with the test sample (conditioned medium or purified IgG) before starting the reaction. Twenty-five μl of reaction mix (5 μl of 25 mM CaCl2, 5 μl of 40 mM dithiothreitol, 5 μl ^3H-putrescine mix, and 10 μl 25 mg/ml of N,N′ dimethylcasein (replace 25 mM CaCl2 with 100 mM EDTA for a non-enzymatic control) was added to start the reaction and the samples incubated at 37° C. for up to 1 hour. Aliquots of 10 μl were spotted onto a strip of 3 MM Whatman filter paper and plunged immediately into ice-cold 10% trichloroacetic acid (TCA) in order to precipitate the cross-linked proteins typically at time 0, 10, 30 and 60 minutes into the reaction. After three extensive washes in ice-cold 5% TCA followed by 3 rinses with ice-cold 95% ethanol, the air dried filter was counted in 2 ml of scintillation fluid (Ultima Gold Packard, Perkin Elmer). The rate of reaction was calculated. 1 TG unit is equivalent to the incorporation of 1 nmol of putrescine per hour at 37° C.

[2] = molecular target: T2, extracellular TG2 in human HK-2 cells (Homo sapiens, UniProt P21980); test: Extracellular TG activity in HK-2 cells, biotin cadaverine incorporation into fibronectin (Example 1); assay type: cell-based
T2 construct: endogenous in cells; host or cells: HK-2 (kidney proximal tubular epithelium)
T2 sequence (P21980 1-687): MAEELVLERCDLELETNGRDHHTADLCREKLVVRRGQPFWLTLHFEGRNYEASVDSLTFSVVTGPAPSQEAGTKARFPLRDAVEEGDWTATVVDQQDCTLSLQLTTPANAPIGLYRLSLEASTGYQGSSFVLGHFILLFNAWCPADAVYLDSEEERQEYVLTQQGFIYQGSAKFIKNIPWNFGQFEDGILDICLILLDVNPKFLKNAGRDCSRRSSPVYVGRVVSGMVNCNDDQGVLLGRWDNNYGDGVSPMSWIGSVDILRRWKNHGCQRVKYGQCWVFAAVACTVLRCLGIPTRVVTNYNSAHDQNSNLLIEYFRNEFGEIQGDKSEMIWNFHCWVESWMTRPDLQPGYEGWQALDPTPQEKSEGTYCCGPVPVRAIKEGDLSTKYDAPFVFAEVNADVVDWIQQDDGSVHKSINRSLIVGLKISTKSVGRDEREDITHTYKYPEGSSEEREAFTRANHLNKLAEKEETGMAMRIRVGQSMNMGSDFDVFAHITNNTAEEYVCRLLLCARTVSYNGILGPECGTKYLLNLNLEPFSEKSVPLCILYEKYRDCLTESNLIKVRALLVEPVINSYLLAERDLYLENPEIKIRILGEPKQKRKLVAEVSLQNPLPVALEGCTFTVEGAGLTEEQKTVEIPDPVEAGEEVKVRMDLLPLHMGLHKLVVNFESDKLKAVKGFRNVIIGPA
Experimental: HK2 cells were plated onto fibronectin and incubated for 2 hours in the presence of 0.1M biotin cadaverine with either 4 ng/μl of human anti-TG2 antibody (AB1) (part A), 4 ng/μl of human anti-TG2 antibody (DC1) (part B) or 400 μM of the site-specific pan TG inhibitor 1,3-Dimethyl-2-[(2-oxo-propyl)thio]imidazolium chloride. […] Changes in optical density were measured at 450 nm in a 96 well plate reader. Data represents mean OD at 450 nm corrected to 1 mg of cell protein. n=6 wells per experimental group.
Extracellular TG activity was measured by modified cell ELISA. HK-2 epithelial cells were harvested using 0.1M EDTA or 0.25% trypsin/EDTA and plated at a density of 8×10^4 cells/well in serum free medium onto a 96 well plate that had been coated overnight with 100 μl/well of fibronectin (5 μg/ml in 50 mM Tris-HCl pH 7.4) (Sigma, Poole UK). Cells were allowed to attach for 2.5 h at 37° C. in the presence of the 0.1 mM biotin cadaverine [N-(5 amino pentyl biotinamide) trifluoroacetic acid] (Molecular Probes, Eugene Oreg., USA). Plates were washed twice with 3 mM EDTA/PBS and cells removed with 0.1% (w/v) deoxycholate in 5 mM EDTA/PBS. The supernatant was collected and used for protein determination. […] The reaction was stopped with 50 μl 2.5 M H2SO4 and the absorbance read at 450 nm.

[3] = molecular target: T3, HepG2 cell lysate proteins (Homo sapiens, UniProt P21980); test: Western blot of HepG2 lysate immunoprobed with AB1; assay type: binding; details: 25 μg of lysate
T3 construct: endogenous in cells; host or cells: HepG2
T3 sequence (P21980 1-687): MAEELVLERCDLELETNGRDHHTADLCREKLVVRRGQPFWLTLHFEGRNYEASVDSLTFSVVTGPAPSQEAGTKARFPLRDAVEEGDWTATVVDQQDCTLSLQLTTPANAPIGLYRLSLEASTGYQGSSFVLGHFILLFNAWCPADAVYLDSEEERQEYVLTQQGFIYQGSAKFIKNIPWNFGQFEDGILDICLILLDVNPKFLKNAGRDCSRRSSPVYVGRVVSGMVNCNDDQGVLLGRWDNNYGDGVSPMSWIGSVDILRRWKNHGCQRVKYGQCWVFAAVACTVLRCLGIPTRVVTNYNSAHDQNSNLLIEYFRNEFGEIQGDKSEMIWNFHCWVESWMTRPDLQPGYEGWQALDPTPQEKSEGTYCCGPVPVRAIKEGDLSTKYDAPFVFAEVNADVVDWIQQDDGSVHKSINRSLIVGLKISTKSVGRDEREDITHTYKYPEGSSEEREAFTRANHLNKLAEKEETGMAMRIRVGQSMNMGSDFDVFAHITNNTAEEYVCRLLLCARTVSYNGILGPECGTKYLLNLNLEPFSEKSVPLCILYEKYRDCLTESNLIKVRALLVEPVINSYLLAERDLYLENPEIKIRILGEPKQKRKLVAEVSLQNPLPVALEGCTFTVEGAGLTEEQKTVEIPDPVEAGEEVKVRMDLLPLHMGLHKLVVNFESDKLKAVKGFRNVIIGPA
Experimental: B: HepG2 cells were exposed to increasing glucose concentrations for 96 hours to up regulate TG2 expression. Cells were harvested, lysed and 25 ug of lysate fractionated by SDS-PAGE, western blotted and then immunoprobed with a 1 ng/ml solution of AB1 IgG using a chemiluminesant end point.
Confirmation of TG2 core protein synthesis as well as TG2 and TG2 core reactivity levels following immunisation were all measured by western blotting. Recombinant proteins (10 to 80 ng) were loaded on a 10% (w/v) polyacrylamide denaturing or non-denaturing gel as required and transferred onto PVDF membranes (Transblot SD, Biorad, UK) for one hour at 100 V. Membranes were blocked overnight at 4° C. with 3% (w/v) BSA in TBS/0.1% (v/v) Tween 20. The membranes were then washed and probed with monoclonal mouse anti-transglutaminase antibodies in TBS/Tween containing 1% BSA. For proof of recombinant TG2 core protein and as a positive control for antibody screening the commercial antibody Cub7402 (neomarkers) was used at a 1:1000 dilution. Binding of primary antibody was detected with the anti-mouse gamma-chain-HRP linked secondary antibody (Sigma, Poole, UK). Bands were visualised using ECL chemiluminescent detection system (Amersham, UK).

[4] = molecular target: T4, TG2 activity in HepG2 cell homogenate (Homo sapiens, UniProt P21980); test: 3H putrescine incorporation TG activity assay in HepG2 cell homogenate; assay type: biochemical
T4 construct: endogenous in cells; host or cells: HepG2
T4 sequence (P21980 1-687): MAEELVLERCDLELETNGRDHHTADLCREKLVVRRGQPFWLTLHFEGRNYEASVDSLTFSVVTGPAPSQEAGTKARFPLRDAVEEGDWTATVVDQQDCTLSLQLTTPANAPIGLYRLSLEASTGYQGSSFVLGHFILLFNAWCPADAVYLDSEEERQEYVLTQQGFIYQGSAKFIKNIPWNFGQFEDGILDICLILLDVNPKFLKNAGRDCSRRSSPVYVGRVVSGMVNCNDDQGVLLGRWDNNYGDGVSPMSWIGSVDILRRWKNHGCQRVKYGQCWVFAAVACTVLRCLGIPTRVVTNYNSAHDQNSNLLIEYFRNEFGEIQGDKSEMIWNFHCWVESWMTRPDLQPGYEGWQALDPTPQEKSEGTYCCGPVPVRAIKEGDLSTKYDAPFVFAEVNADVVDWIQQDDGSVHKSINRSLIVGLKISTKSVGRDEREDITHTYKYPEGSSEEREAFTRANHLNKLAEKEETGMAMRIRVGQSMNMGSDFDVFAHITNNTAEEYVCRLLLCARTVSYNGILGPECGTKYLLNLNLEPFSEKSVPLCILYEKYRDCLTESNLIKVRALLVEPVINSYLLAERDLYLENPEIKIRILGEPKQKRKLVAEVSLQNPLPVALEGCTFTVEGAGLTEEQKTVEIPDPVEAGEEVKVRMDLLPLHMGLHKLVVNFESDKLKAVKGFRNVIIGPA
Experimental: A: Hep2G cells were lysed and 45 ug of protein mixed with 750 ng of IgG from AB1, DH2, DD9, BB7, DC1 and EH6 for 20 minutes. This was subsequently assayed using the ^3H Putrescine incorporation TG activity assay with sampling over 1 hour. The rate of reaction was calculated and expressed as a percentage of the same lysate incubated with a random antibody (MAB002). Data represents the mean percentage inhibition ±SEM from 2 separate experiments done in duplicate. *p<0.05
HepG2 cells were kindly supplied by Richard Ross (University of Sheffield). Cells were routinely grown at 37° C. in a 95% humidified atmosphere of 5% CO2 in DMEM/4.5 g per liter glucose supplemented with 10% foetal calf serum (FCS), 100 IU penicillin and 100 μg/ml streptomycin, 2 mM I-glutamine (all GIBCO). Two million cells were seeded on a 10 cm dishes and grown for 48 hours. Cells were lysed in 250 μl of STE buffer (0.32M sucrose, 5 mM Tris, 1 mM EDTA containing protease inhibitors Phenylmethylsulphonyl fluoride (1 mM), benzamidine (5 mM), and leupeptin (10 μg/ml) and sonicated on ice to produce a cell lysate usable in TG2 activity assay.
The same protocol was used to assess TG inhibition in cell lysates by replacing the 25 μl of recombinant protein with 25 μl of cell lysate.

IC50 against human TG2 ([1]; amount of IgG in the reaction that would inhibit 1 ng of TG2, 100 ng human TG2): 0.011 µg/mL
hybridoma supernatant ability to inhibit TG2 activity ([1]; initial screen of conditioned medium, 100 ng of TG2): able to inhibit TG2 activity
inhibition of extracellular TG activity ([2]; 4 ng/ul in the culture media): 60%
inhibition of extracellular TG2 in human HK-2 cells (in words) ([2]; applied to the culture media): able to inhibit TG2 successfully
off target association in HepG2 lysate [3]: no off target association
inhibition of TG2 in human Hep2G cells (in words) [4]: able to inhibit TG2 successfully
inhibition of TG2 activity in HepG2 homogenate ([4]; 0.5 μg of antibody, 45 ug lysate protein): 70%
B1: AB1: murine monoclonal anti-TG2 IgG, Group 1 (epitope amino acids 304 to 326); VH and VK in FIGS. 7 and 18 (antibody, V domains shown)
VH: EVQLVESGGGLVKPGGSLKLSCAASGFTLSSSAMSWVRQTPDRRLEWVATISVGGGKTYYPDSVKGRFTISRDNAKNTLYLQMNSLRSEDTAMYYCAKLISLYWGQGTTLTVSS
VL: DIKMTQSPSSMYASLGERVTITCKASQDINSYLTWFQQKPGKSPKTLIYRTNRLFDGVPSRFSGSGSGQDFFLTISSLEYEDMGIYYCLQYDDFPYTFGGGTKLEIK
